How the values were obtained:
[1] = target: T1, human CD39 (full length, on cells) (human, UniProt P49961 1-510); assay: FACS, SK-MEL-28 cells
T1 construct: Recombinant on CHOK1-hCD39 cells or natural on SK-MEL-28, SK-MEL-5 and MOLP-8 cells; the cell line is named under assay; also called hCD39; ENTPD1
T1 sequence: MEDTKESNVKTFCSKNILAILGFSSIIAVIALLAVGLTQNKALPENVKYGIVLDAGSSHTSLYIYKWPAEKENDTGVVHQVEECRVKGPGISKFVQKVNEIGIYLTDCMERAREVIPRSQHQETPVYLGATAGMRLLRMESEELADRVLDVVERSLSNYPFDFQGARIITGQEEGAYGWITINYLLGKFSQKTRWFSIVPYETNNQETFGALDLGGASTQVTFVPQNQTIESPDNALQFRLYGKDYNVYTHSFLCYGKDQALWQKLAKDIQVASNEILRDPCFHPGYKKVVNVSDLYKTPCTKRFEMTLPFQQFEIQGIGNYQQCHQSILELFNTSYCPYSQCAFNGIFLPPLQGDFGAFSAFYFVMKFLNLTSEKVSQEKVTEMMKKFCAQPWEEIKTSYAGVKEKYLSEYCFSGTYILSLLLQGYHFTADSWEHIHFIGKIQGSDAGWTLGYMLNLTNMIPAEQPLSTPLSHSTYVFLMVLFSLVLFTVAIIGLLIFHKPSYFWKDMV
Description: (§1) FACS were used to determine binding of the antibodies to cell lines expressing CD39 naturally (SK-MEL-28) or recombinantly (CHOK1-hCD39, CHOK1-cynoCD39, and CHOK1-mCD39), or with cells lacking CD39 expression (CHOK1-blank) as a negative control.
Similarly, human CD39 expressing cells SK-MEL-5, SK-MEL-28 or MOLP-8, were incubated with a gradient concentration of anti-CD39 antibodies for 30 minutes at 4° C. Cells were washed 3 times using FACS buffer and next incubated with fluorescence labelled secondary antibody (goat-anti-mouse IgG or goat anti-human IgG) for 30 minutes at 4° C. Cells were washed 3 times and then re-suspended in FACS buffer and analyzed by flow cytometry analysis on BD Celesta. Data plotted and analyzed using GraphPad Prism 8.02.

[2] = target: T1, human CD39 (full length, on cells); assay: cell-based or functional assay
[3] = target: T1, human CD39 (full length, on cells); assay: FACS, CHOK1-hCD39 cells
Description: as §1
(§2) CHOK1-hCD39, CHOK1-cCD39, CHOK1-mCD39 and CHOK1-blank cells were maintained in culture medium according to ATCC procedure. Cells were collected and re-suspended in blocking buffer at a density of 3×10⁶ cells/ml. Cells were transferred to 96 well FACS plates at 100 μl/well (3×10⁵ cells/well), the plates were centrifuged and washed twice with FACS buffer (PBS, 1% FBS, 0.05% Tween-20). 4-folds serial dilution of anti-CD39 antibodies were prepared in FACS buffer starting from 30 μg/ml. Reference antibody 9-8B and mouse/human control IgG were used as positive and negative controls, respectively. Cells were re-suspended in 100 μL/well diluted antibodies, and the plates were incubated at 4° C. for 60 min. […] The plates were washed with FACS buffer, and cells were re-suspended in 100 μL/well of PBS. Cells were then analyzed with FACSVerse™ and mean fluorescence intensity were determined. Full binding curves were generated on the CD39 expressing cells by testing a range of antibody concentrations. Apparent affinity was determined for each antibody using Prism software.

[4] = target: T2, mouse CD39 (full length, on CHOK1-mCD39 cells) (mouse, UniProt P55772 1-510); assay: FACS, CHOK1-mCD39 cells
T2 construct: whole, on cells
T2 sequence (looked up): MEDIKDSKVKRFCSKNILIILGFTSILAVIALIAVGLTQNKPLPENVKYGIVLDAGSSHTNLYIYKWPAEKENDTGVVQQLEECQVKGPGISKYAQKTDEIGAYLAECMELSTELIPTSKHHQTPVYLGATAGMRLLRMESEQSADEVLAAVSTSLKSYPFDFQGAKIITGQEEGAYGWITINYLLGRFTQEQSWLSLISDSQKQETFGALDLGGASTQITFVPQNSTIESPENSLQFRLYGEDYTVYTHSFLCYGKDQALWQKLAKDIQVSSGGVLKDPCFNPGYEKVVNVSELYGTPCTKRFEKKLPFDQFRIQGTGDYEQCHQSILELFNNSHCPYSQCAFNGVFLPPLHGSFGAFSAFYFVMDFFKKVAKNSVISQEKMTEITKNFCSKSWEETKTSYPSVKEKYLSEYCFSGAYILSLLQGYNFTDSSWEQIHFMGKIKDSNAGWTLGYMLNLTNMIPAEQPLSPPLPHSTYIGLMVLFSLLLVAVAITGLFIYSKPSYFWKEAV
Description: as §1, §2

[5] = target: T3, cynomolgus CD39 (full length, on CHOK1-cynoCD39 cells) (cynomolgus monkey, UniProt A0A7N9DGH8 1-510); assay: FACS, CHOK1-cynoCD39 cells
T3 construct: whole, on cells; also called cCD39
T3 sequence: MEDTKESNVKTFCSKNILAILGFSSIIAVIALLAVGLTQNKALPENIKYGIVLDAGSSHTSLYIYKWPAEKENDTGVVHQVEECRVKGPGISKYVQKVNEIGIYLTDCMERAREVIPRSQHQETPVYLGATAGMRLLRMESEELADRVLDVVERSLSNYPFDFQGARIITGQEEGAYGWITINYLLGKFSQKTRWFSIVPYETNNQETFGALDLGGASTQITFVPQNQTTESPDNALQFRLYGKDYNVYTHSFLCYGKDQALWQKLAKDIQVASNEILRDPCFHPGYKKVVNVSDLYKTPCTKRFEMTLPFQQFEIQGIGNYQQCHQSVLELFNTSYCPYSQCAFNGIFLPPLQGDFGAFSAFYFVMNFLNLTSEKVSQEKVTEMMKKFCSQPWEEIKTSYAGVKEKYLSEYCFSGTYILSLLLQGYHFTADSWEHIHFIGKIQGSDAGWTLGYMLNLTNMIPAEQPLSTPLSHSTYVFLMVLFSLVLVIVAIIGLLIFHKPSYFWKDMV
Description: as §1, §2

[6] = target: T1, human CD39 (full length, on cells); assay: FACS competition on CHOK1-hCD39; competitor 9-8B-Alexa488
Description: (§3) Anti-CD39 antibodies were labeled using Alex488 labeling kit and were diluted in a series of concentrations, before mixing with CHOK1-hCD39 cells to test binding EC₅₀using FACS. The non-labeled antibodies were tested for their blocking efficacy to the labelled ones. Briefly, mononuclear CHOK1-hCD39 cells were prepared to 2×10⁶/ml and plated into 96 well at 50 μl/well, then mixed with antibodies gradients to final volume at 100 μl, and then equal volume of Alex488 label antibodies were added at two folds EC80 concentration. 96 well plates were incubated at 4° C. for 1 hour, and spun down and washed 3 times with 200 μl FACS buffer. The FACS analysis was performed on FACScelesta machine and data was analyzed by Flowjo software. The blocking percentages were calculated and those having above 80% competition rate were allocated into one epitope group, compared with the non-competing well (Alex488 labeled antibody only).
(§4) Based on the competition results, the 4 anti-CD39 hybridoma antibodies (mAb14, mAb19, mAb21, mAb23) can be grouped into 4 different epitope groups, as shown in Table 11.

[7] = target: T1, human CD39 (full length, on cells); assay: FACS competition on CHOK1-hCD39; competitor mAb14-Alexa488
Description: as §3, §4

[8] = target: T1, human CD39 (full length, on cells); assay: FACS competition on CHOK1-hCD39; competitor mAb19-Alexa488
Description: as §3, §4

[9] = target: T1, human CD39 (full length, on cells); assay: FACS competition on CHOK1-hCD39; competitor mAb21-Alexa488
Description: as §3, §4

[10] = target: T1, human CD39 (full length, on cells); assay: FACS competition on CHOK1-hCD39; competitor mAb23-Alexa488
Description: as §3, §4

B1: mAb23 (antibody, V domains shown)
VH: EVQLQQSGAELLRPGASVKLSCTASGYNLKDTFLHWVKQRPEQGLEWIGRIDPANGNIKYDPKFQGKATLTADTSSNTAYLQLISLTSEDTAVYYCANSPYYYGSGYRIFDVWGAGTTVTVSS
VL: QIVLTQSPAIMSASPGEKVTITCSAFSSVNYMHWYQQKPGTSPKLLIYTTSNLASGVPTRFSGSGSGTSYSLTISRMEAEDAATYYCQQRSTYPFTFGSGTKLEIQ
notes: mouse hybridoma antibody
Q: With B1 as the binder, how does the EC50 [1] read?
A: Its EC50 is 1.6 nM.

Q: And the “SK-MEL-28 cell based ATPase inhibition % at 10 nM” value [2]?
A: The value was 75%.

Q: What about the EC50 [3] of the same binder?
A: Its EC50 is 1.7 nM.

Q: Does B1 bind [4]?
A: Result: no binding (tested: 30 µg/ml highest concentration)

Q: What about the EC50 [5] of the same binder?
A: Its EC50 is 2.3 nM.

Q: And the blocking percentage [6]?
A: The blocking percentage was 98%.

Q: And the blocking percentage [7]?
A: Its blocking percentage is 86%.

Q: And the blocking percentage [8]?
A: Its blocking percentage is 98%.

Q: And the blocking percentage [9]?
A: The blocking percentage was 93%.

Q: What about the blocking percentage [10] of the same binder?
A: Its blocking percentage is 100%.

B2: mAb21 (antibody, V domains shown)
VH: EVKLEKSGGGLVQPGGSMKLSCVASGFTFSNYWMNWVRQSPEKGLEWVAQIRLNPDNYATHFAESVKGRFTISRDDSKNSVYLQMNSLRAEDTGIYYCTEHGTRGFAYWGQGTLVTVSE
VL: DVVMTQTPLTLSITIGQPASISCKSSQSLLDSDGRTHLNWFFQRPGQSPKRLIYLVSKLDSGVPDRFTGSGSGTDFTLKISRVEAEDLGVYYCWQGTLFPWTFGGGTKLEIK
notes: mouse hybridoma antibody
Q: Which EC50 [1] does the source give for B2 here?
A: The EC50 was 90 nM.

Q: And the “SK-MEL-28 cell based ATPase inhibition % at 10 nM” value [2]?
A: Its value is 70%.

Q: What about the EC50 [3] of the same binder?
A: Its EC50 is 6.7 nM.

Q: Does B2 bind [4]?
A: Result: no binding (tested: 30 µg/ml highest concentration)

Q: What about the EC50 [5] of the same binder?
A: The EC50 was 11 nM.

Q: What about the blocking percentage [6] of the same binder?
A: Its blocking percentage is 20%.

Q: And the blocking percentage [7]?
A: The blocking percentage was 24%.

Q: And the blocking percentage [8]?
A: Its blocking percentage is 98%.

Q: What about the blocking percentage [9] of the same binder?
A: The blocking percentage was 90%.

Q: And the blocking percentage [10]?
A: The blocking percentage was 97%.

B3: mAb19 (antibody, V domains shown)
VH: EVKLEKSGGGLVQPGGSMKLSCVASGFTFSNYWMNWVRQSPEKGLEWVAQIRLNPDNYATHYAESVKGRFTISRDDYKNSVYLQMSSLRAEDSGIYYCTQHGSRGFAYWGQGTLVTVS
VL: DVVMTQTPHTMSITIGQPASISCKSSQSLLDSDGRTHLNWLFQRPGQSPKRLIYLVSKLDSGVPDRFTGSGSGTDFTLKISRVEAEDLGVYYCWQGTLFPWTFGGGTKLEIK
notes: mouse hybridoma antibody
Q: With B3 as the binder, how does the EC50 [1] read?
A: Its EC50 is 46 nM.

Q: And the “SK-MEL-28 cell based ATPase inhibition % at 10 nM” value [2]?
A: Its value is 65%.

Q: And the EC50 [3]?
A: The EC50 was 4.5 nM.

Q: Does B3 bind [4]?
A: Result: no binding (tested: 30 µg/ml highest concentration)

Q: What about the EC50 [5] of the same binder?
A: The EC50 was 5.8 nM.

Q: And the blocking percentage [6]?
A: Its blocking percentage is 6%.

Q: What about the blocking percentage [7] of the same binder?
A: Its blocking percentage is 23%.

Q: And the blocking percentage [8]?
A: The blocking percentage was 96%.

Q: What about the blocking percentage [9] of the same binder?
A: The blocking percentage was 83%.

Q: And the blocking percentage [10]?
A: Its blocking percentage is 91%.

— patent US20210388105A1 (ELPISCIENCE SUZHOU BIOPHARMA, published 2021)
